B1: Δ74-88: AnxA2 deletion of aa 74-88 (protein)
chain: MSTVHEILCKLSLEGDHSTPPSAYGSVKAYTNFDAERDALNIETAIKTKGVDEVTIVNILTNRSNAQRQDIAFSALSGHLETVILGLLKTPAQYDASELKASMKGLGTDEDSLIEIICSRTNQELQEINRVYKEMYKTDLEKDIISDTSGDFRKLMVALAKGRRAEDGSVIDYELIDQDARDLYDAGVKRKGTDVPKWISIMTERSVPHLQKVFDRYKSYSPYDMLESIRKEVKGDLENAFLNLVQCIQNKPLYFADRLYDSMKGKGTRDKVLIRIMVSRSEVDMLKIRSEFKRKYGKSLYYYIQQDTKGDYQKALLYLCGGDDYPYDVPDYA
B2: ΔR1: AnxA2 deletion of aa 37-108 (protein)
chain: MSTVHEILCKLSLEGDHSTPPSAYGSVKAYTNFDAEYDASELKASMKGLGTDEDSLIEIICSRTNQELQEINRVYKEMYKTDLEKDIISDTSGDFRKLMVALAKGRRAEDGSVIDYELIDQDARDLYDAGVKRKGTDVPKWISIMTERSVPHLQKVFDRYKSYSPYDMLESIRKEVKGDLENAFLNLVQCIQNKPLYFADRLYDSMKGKGTRDKVLIRIMVSRSEVDMLKIRSEFKRKYGKSLYYYIQQDTKGDYQKALLYLCGGDDYPYDVPDYA
B3: ΔR4: AnxA2 deletion of aa 269-339 (protein)
chain: MSTVHEILCKLSLEGDHSTPPSAYGSVKAYTNFDAERDALNIETAIKTKGVDEVTIVNILTNRSNAQRQDIAFAYQRRTKKELASALKSALSGHLETVILGLLKTPAQYDASELKASMKGLGTDEDSLIEIICSRTNQELQEINRVYKEMYKTDLEKDIISDTSGDFRKLMVALAKGRRAEDGSVIDYELIDQDARDLYDAGVKRKGTDVPKWISIMTERSVPHLQKVFDRYKSYSPYDMLESIRKEVKGDLENAFLNLVQCIQNKPLYPYDVPDYA
B4: Δ82-88: AnxA2 deletion of aa 82-88 (protein)
chain: MSTVHEILCKLSLEGDHSTPPSAYGSVKAYTNFDAERDALNIETAIKTKGVDEVTIVNILTNRSNAQRQDIAFAYQRRTKKSALSGHLETVILGLLKTPAQYDASELKASMKGLGTDEDSLIEIICSRTNQELQEINRVYKEMYKTDLEKDIISDTSGDFRKLMVALAKGRRAEDGSVIDYELIDQDARDLYDAGVKRKGTDVPKWISIMTERSVPHLQKVFDRYKSYSPYDMLESIRKEVKGDLENAFLNLVQCIQNKPLYFADRLYDSMKGKGTRDKVLIRIMVSRSEVDMLKIRSEFKRKYGKSLYYYIQQDTKGDYQKALLYLCGGDDYPYDVPDYA
B5: Δ37-48: AnxA2 deletion of aa 37-48 (protein)
chain: MSTVHEILCKLSLEGDHSTPPSAYGSVKAYTNFDAEKGVDEVTIVNILTNRSNAQRQDIAFAYQRRTKKELASALKSALSGHLETVILGLLKTPAQYDASELKASMKGLGTDEDSLIEIICSRTNQELQEINRVYKEMYKTDLEKDIISDTSGDFRKLMVALAKGRRAEDGSVIDYELIDQDARDLYDAGVKRKGTDVPKWISIMTERSVPHLQKVFDRYKSYSPYDMLESIRKEVKGDLENAFLNLVQCIQNKPLYFADRLYDSMKGKGTRDKVLIRIMVSRSEVDMLKIRSEFKRKYGKSLYYYIQQDTKGDYQKALLYLCGGDDYPYDVPDYA
B6: ΔR2: AnxA2 deletion of aa 109-192 (protein)
chain: MSTVHEILCKLSLEGDHSTPPSAYGSVKAYTNFDAERDALNIETAIKTKGVDEVTIVNILTNRSNAQRQDIAFAYQRRTKKELASALKSALSGHLETVILGLLKTPAQQDARDLYDAGVKRKGTDVPKWISIMTERSVPHLQKVFDRYKSYSPYDMLESIRKEVKGDLENAFLNLVQCIQNKPLYFADRLYDSMKGKGTRDKVLIRIMVSRSEVDMLKIRSEFKRKYGKSLYYYIQQDTKGDYQKALLYLCGGDDYPYDVPDYA
B7: Δ49-61: AnxA2 deletion of aa 49-61 (protein)
chain: MSTVHEILCKLSLEGDHSTPPSAYGSVKAYTNFDAERDALNIETAIKTNRSNAQRQDIAFAYQRRTKKELASALKSALSGHLETVILGLLKTPAQYDASELKASMKGLGTDEDSLIEIICSRTNQELQEINRVYKEMYKTDLEKDIISDTSGDFRKLMVALAKGRRAEDGSVIDYELIDQDARDLYDAGVKRKGTDVPKWISIMTERSVPHLQKVFDRYKSYSPYDMLESIRKEVKGDLENAFLNLVQCIQNKPLYFADRLYDSMKGKGTRDKVLIRIMVSRSEVDMLKIRSEFKRKYGKSLYYYIQQDTKGDYQKALLYLCGGDDYPYDVPDYA
B8: Δ62-75: AnxA2 deletion of aa 62-75 (protein)
chain: MSTVHEILCKLSLEGDHSTPPSAYGSVKAYTNFDAERDALNIETAIKTKGVDEVTIVNILTQRRTKKELASALKSALSGHLETVILGLLKTPAQYDASELKASMKGLGTDEDSLIEIICSRTNQELQEINRVYKEMYKTDLEKDIISDTSGDFRKLMVALAKGRRAEDGSVIDYELIDQDARDLYDAGVKRKGTDVPKWISIMTERSVPHLQKVFDRYKSYSPYDMLESIRKEVKGDLENAFLNLVQCIQNKPLYFADRLYDSMKGKGTRDKVLIRIMVSRSEVDMLKIRSEFKRKYGKSLYYYIQQDTKGDYQKALLYLCGGDDYPYDVPDYA
B9: Δ89-101: AnxA2 deletion of aa 89-101 (protein)
chain: MSTVHEILCKLSLEGDHSTPPSAYGSVKAYTNFDAERDALNIETAIKTKGVDEVTIVNILTNRSNAQRQDIAFAYQRRTKKELASALKLLKTPAQYDASELKASMKGLGTDEDSLIEIICSRTNQELQEINRVYKEMYKTDLEKDIISDTSGDFRKLMVALAKGRRAEDGSVIDYELIDQDARDLYDAGVKRKGTDVPKWISIMTERSVPHLQKVFDRYKSYSPYDMLESIRKEVKGDLENAFLNLVQCIQNKPLYFADRLYDSMKGKGTRDKVLIRIMVSRSEVDMLKIRSEFKRKYGKSLYYYIQQDTKGDYQKALLYLCGGDDYPYDVPDYA
B10: Δ37-66: AnxA2 deletion of aa 37-66 (protein)
chain: MSTVHEILCKLSLEGDHSTPPSAYGSVKAYTNFDAEQRQDIAFAYQRRTKKELASALKSALSGHLETVILGLLKTPAQYDASELKASMKGLGTDEDSLIEIICSRTNQELQEINRVYKEMYKTDLEKDIISDTSGDFRKLMVALAKGRRAEDGSVIDYELIDQDARDLYDAGVKRKGTDVPKWISIMTERSVPHLQKVFDRYKSYSPYDMLESIRKEVKGDLENAFLNLVQCIQNKPLYFADRLYDSMKGKGTRDKVLIRIMVSRSEVDMLKIRSEFKRKYGKSLYYYIQQDTKGDYQKALLYLCGGDDYPYDVPDYA
B11: ΔR3: AnxA2 deletion of aa 193-268 (protein)
chain: MSTVHEILCKLSLEGDHSTPPSAYGSVKAYTNFDAERDALNIETAIKTKGVDEVTIVNILTNRSNAQRQDIAFAYQRRTKKELASALKSALSGHLETVILGLLKTPAQYDASELKASMKGLGTDEDSLIEIICSRTNQELQEINRVYKEMYKTDLEKDIISDTSGDFRKLMVALAKGRRAEDGSVIDYELIDYFADRLYDSMKGKGTRDKVLIRIMVSRSEVDMLKIRSEFKRKYGKSLYYYIQQDTKGDYQKALLYLCGGDDYPYDVPDYA

The assay deals with PCSK9-V5 (Homo sapiens, UniProt Q8NBP7). Briefly: Far Western blot with PCSK9-V5 conditioned media. The format is binding. Further details: made in house; host or cells: CHO-K1 cells (conditioned medium, not purified). As to conditions: lysates of cells overexpressing the construct. On the procedure: Lysates (20 to 30 μg protein), media or purified AnxA2-(His)6 were heated in reducing or non-reducing Laemmli sample buffer, resolved by SDS-PAGE on 8% glycine gels and electro-transferred onto nitrocellulose membranes (GE Healthcare). Following 1 h incubation in 5% skim milk in Tris-Buffered Saline-0.1% Tween (TBST), membranes where incubated with conditioned media of CHO-K1 cells overexpressing either an empty vector (pIRES-V5), PC5A-V5, CHRD-V5, pIRES-D374Y, PCSK9-V5 or its V5-tagged mutants, or incubated with purified AnxA2-(His)6 for 3 h at room temperature. […] For competition experiments, 10 μg of His-tagged PCSK9 or CHRD were added to the PCSK9-V5 media before Far Western blotting. For PCSK9 binding requirements with the ˜33 kDa protein, 1M NaCl, 10 mg/ml heparin, 1M NaCl+10 mg/ml heparin, or 100 mM EDTA were added to the PCSK9-V5 conditioned media used for Far Western blotting.
Chain of PCSK9-V5 (Q8NBP7 153-692): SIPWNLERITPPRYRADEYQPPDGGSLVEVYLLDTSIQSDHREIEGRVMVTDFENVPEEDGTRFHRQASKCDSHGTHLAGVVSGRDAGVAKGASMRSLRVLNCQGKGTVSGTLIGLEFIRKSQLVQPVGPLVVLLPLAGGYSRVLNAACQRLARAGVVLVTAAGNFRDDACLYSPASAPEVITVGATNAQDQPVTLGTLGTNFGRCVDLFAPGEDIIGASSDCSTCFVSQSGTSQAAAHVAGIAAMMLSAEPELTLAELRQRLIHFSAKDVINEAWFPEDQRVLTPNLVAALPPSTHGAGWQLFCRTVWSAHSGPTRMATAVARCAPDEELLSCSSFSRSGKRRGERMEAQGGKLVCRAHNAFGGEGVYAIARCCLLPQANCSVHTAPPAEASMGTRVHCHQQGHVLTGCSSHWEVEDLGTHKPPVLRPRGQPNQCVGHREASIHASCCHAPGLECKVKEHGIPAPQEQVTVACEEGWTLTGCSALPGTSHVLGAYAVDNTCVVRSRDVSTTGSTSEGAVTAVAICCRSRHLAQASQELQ
Chain of PCSK9-V5 (Q8NBP7 31-152 partner limits assumed): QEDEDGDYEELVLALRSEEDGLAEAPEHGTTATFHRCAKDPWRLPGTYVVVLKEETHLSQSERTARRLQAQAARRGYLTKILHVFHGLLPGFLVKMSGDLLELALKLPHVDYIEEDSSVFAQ
Wild type human Annexin A2 (AnxA2) (ATCC #MGC-2257) and Annexin A1 (AnxA1) (ATCC #MGC-5095) were purchased from ATCC and subcloned into NheI/SacI digested pIRES2-EGFP vector. An HA epitope ([…]) was fused by PCR mutagenesis at the C-terminus of both AnxA1 and AnxA2. Two-steps PCRs were performed on AnxA2 cDNA to introduce point mutations (N62Q; S64A; K28S+D34N+E36S; R37S+E43H+K47M; 77RRTKK (SEQ ID NO: 26)>AATAK (SEQ ID NO: 27); ^77RRTKK (SEQ ID NO: 26)>AATAA (SEQ ID NO: 28); ^77RRTKKELASALK (SEQ ID NO: 29)>^77AATAAELASALA (SEQ ID NO: 30); 80KKELA (SEQ ID NO: 31)>GKPLD (SEQ ID NO: 32)), or amino acid (aa) deletions (Δ2-24, aa 2-24; ΔR1, aa 37-108; ΔR2, aa 109-192; ΔR3, aa 193-268; ΔR4, aa 269-339; Δ25-36, aa 25-36; Δ37-48, aa 37-48; Δ49-61, aa 49-61; Δ62-75, aa 62-75; Δ37-66, aa 37-66; Δ74-88, aa 74-88; Δ82-88, aa 82-88; Δ89-101, aa 89-101; Δ102-108, aa 102-108) into pIRES2-AnxA2-EGFP vector (see Table 3 above). In addition, using PCR, the AnxA2 segment aa 49-75 was swapped with the corresponding AnxA1 segment aa 58-84 [AnxA1 (aa 58-84)>AnxA2 (aa 49-75)]. Similar swaps were performed for the corresponding AnxA2 sequence with AnxA1 (AnxA1>AnxA2: aa 25-27; aa 28-30; aa 31-33; aa 34-36; aa 37-39; aa 40-42; aa 43-45; aa 46-48; aa 49-75; aa 49-61; aa 62-75). All final cDNA constructs were verified by DNA sequencing.
Δ2-24: AnxA2 deletion of aa 2-24: the “PCSK9-V5 binding by Far Western blot” value is “does not affect binding to PCSK9”.

B1: the “PCSK9-V5 binding by Far Western blot” value is given as “abolished PCSK9 binding”. The value for B2 was “completely abrogated the interaction”. The value for B3 was “had no major effect”; that for B4 was “abolished PCSK9 binding”; that for B5 was “abolished PCSK9 binding”. B6: the “PCSK9-V5 binding by Far Western blot” value is on record as “had no major effect”. For B7, the “PCSK9-V5 binding by Far Western blot” value is “abolished PCSK9 binding”.

For B8, the “PCSK9-V5 binding by Far Western blot” value was “abolished PCSK9 binding”. As to B9, the “PCSK9-V5 binding by Far Western blot” value was “abolished PCSK9 binding”. With B10, the “PCSK9-V5 binding by Far Western blot” value is reported as “abolished PCSK9 binding”.

As for B11, the “PCSK9-V5 binding by Far Western blot” value is on record as “had no major effect”.
